Experimental data published in PMC3616968, “Post-Transcriptional Regulation of the Trypanosome Heat Shock Response by a Zinc Finger Protein”.

Molecular target: T1, ZC3H11-119 (Trypanosoma brucei, UniProt Q57W26 1-119)
T1 sequence: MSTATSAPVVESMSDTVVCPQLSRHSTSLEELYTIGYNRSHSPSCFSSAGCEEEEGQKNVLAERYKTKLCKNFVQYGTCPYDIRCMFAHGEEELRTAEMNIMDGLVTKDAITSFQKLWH
Test: EMSA; limiting probe titration; no binding; 20 mM Tris-HCl pH 8.0, 50 mM NaCl, 10 uM ZnCl2, 0.01% IGEPAL CA-630, 0.1 mg/ml tRNA, 10 ug/ml heparin (legends: 5 ug/ml or 10 mg/ml), room temperature 30 min; 100 pmol protein, 1 pmol RNA
Details: protein: recombinant; tags: His10 (called His-tagged)

B1: U23 (ssRNA)
RNA: UUUUUUUUUUUUUUUUUUUUUUU
B1: no binding.
